Data published in patent US20030124664.

Target: human growth hormone (hGH) with the N-terminal phenylalanine, expressed and secreted from plasmid phGH4R, P01241
Sequence (P01241 27-217): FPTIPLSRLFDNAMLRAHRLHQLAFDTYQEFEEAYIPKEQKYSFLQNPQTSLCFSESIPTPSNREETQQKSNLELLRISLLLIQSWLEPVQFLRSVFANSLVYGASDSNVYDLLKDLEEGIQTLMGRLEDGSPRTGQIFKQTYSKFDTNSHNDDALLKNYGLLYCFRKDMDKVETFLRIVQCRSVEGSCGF

B1: native-sequence aminopeptidase b2324 (product of the E. coli chromosomal yfcK gene) (protein)
chain: MRSLTHIAKIEPPPVRRVTYVKHYSIQPANLEFNAEGTPVSRDFDDVYFSNDNGLEETRYVFLGGNQLEVRFPEHPHPLFVVAESGFGTGLNFLTLWQAFDQFREAHPQAQLQRLHFISFEKFPLTRADLALAHQHWPELAPWAEQLQAQWPMPLPGCHRLLLDEGRVTLDLWFGDINELTSQLDDSLNQKVDAWFLDGFAPAKNPDMWTQNLFNAMARLARPGGTLATFTSAGFVRRGLQDAGFTMQKRKGFGRKREMLCGVMEQTLPLPCSAPWFNRTGSSKREAAIIGGGIASALLSLALLRRGWQVTLYCADEAPALGASGNRQGALYPLLSKHDEALNRFFSNAFTFARRFYDQLPVKFDHDWCGVTQLGWDEKSQHKIAQMLSMDLPAELAVAVEANAVEQITGVATNCSGITYPQGGWLCPAELTRNVLELAQQQGLQIYYQYQLQNLSRKDDCWLLNFAGDQQATHSVVVLANGHQISRFSQTSTLPVYSVAGQVSHIPTTPELAELKQVLCYDGYLTPQNPANQHHCIGASYHRGSEDTAYSEDDQQQNRQRLIDCFPQAQWAKEVDVSDKEARCGVRCATRDHLPMVGNVPDYEATLVEYASLAEQKDEAVSAPVFDDLFMFAALGSRGLCSAPLCAEILAAQMSDEPIPMDASTLAALNPNRLWVRKLLKGKAVKAG
For B1, the “N-terminal cleavage of hGH in crude lysate (LC-MS), yfcK deletion strain against control” value was “virtually no phenylalanine-cleaved impurities after 15 hours of incubation at 37 °C”.
